Assay results reported in PMC5374532, “Rational mutagenesis by engineering disulphide bonds improves Kluyveromyces lactis beta-galactosidase for high-temperature industrial applications” (Scientific Reports, 2017).

Substrate: O=[N+]([O-])c1ccc(O[C@@H]2O[C@H](CO)[C@H](O)[C@H](O)[C@H]2O)cc1
Experiment: purified protein
Assay type: biochemical, Kluyveromyces lactis
Conditions: Z buffer (100 mM Na2HPO4, 40 mM NaH2PO4, 10 mM KCl, 1.6 mM MgSO4), 30 °C, 0.3 μg/mL enzyme, substrate 0-20 mM

B1: Kl-β-Gal (Kluyveromyces lactis β-galactosidase) (Kluyveromyces lactis NRRL Y-1140) (protein)
chain: SCLIPENLRNPKKVHENRLPTRAYYYDQDIFESLNGPWAFALFDAPLDAPDAKNLDWETAKKWSTISVPSHWELQEDWKYGKPIYTNVQYPIPIDIPNPPTVNPTGVYARTFELDSKSIESFEHRLRFEGVDNCYELYVNGQYVGFNKGSRNGAEFDIQKYVSEGENLVVVKVFKWSDSTYIEDQDQWWLSGIYRDVSLLKLPKKAHIEDVRVTTTFVDSQYQDAELSVKVDVQGSSYDHINFTLYEPEDGSKVYDASSLLNEENGNTTFSTKEFISFSTKKNEETAFKINVKAPEHWTAENPTLYKYQLDLIGSDGSVIQSIKHHVGFRQVELKDGNITVNGKDILFRGVNRHDHHPRFGRAVPLDFVVRDLILMKKFNINAVRNSHYPNHPKVYDLFDKLGFWVIDEADLETHGVQEPFNRHTNLEAEYPDTKNKLYDVNAHYLSDNPEYEVAYLDRASQLVLRDVNHPSIIIWSLGNEACYGRNHKAMYKLIKQLDPTRLVHYEGDLNALSADIFSFMYPTFEIMERWRKNHTDENGKFEKPLILCEYGHAMGNGPGSLKEYQELFYKEKFYQGGFIWEWANHGIEFEDVSTADGKLHKAYAYGGDFKEEVHDGVFIMDGLCNSEHNPTPGLVEYKKVIEPVHIKIAHGSVTITNKHDFITTDHLLFIDKDTGKTIDVPSLKPEESVTIPSDTTYVVAVLKDDAGVLKAGHEIAWGQAELPLKVPDFVTETAEKAAKINDGKRYVSVESSGLHFILDKLLGKIESLKVKGKEISSKFEGSSITFWRPPTNNDEPRDFKNWKKYNIDLMKQNIHGVSVEKGSNGSLAVVTVNSRISPVVFYYGFETVQKYTIFANKINLNTSMKLTGEYQPPDFPRVGYEFWLGDSYESFEWLGRGPGESYPDKKESQRFGLYDSKDVEEFVYDYPQENGNHTDTHFLNIKFEGAGKLSIFQKEKPFNFKISDEYGVDEAAHACDVKRYGRHYLRLDHAIHGVGSEACGPAVLDQYRLKAQDFNFEFDLAFE
notes: full length, N-terminal FLAG tag kept (YEpFLAG vector); monomer 118 kDa; active as dimer and tetramer
For B1, the Km was 2.15 ± 0.52 mM and the Vmax was 71.9 µmol/min/mg.
